Data on two substances can be found in publication PMC2132865.

Experiment [1] has as its target Fam (endogenous, MDCKII cells) (dog (endogenous in MDCKII)). The experiment is described as follows: co-IP.
For another experiment, the target named is GST-AF-6 (1130–1612 aa). The experiment is described as follows: pull-down.

The substance “AF-6 (endogenous, MDCKII cells) (natural protein)” yielded a stoichiometry N in experiment [1] of 0.1 AF-6 per Fam.
In turn, “MBP-Fam (1476–1918 aa) (domain or fragment)” yielded a Kd with GST-AF-6 (1130–1612 aa) of 810 nM.
